This experiment has as its target T1, fibrin (human, UniProt P02671 36-629; P02675 45-491; P02679 27-437, limits assumed).
T1 construct: Thin polymerised fibrin layer made by layer-by-layer deposition of fibrinogen-thrombin-fibrinogen on ELISA plates, SPR chips and interferometry sensors; Human is stated for the purified fibrinogen used in biopanning; also called fibrin layer; fibrin clot
T1 sequence (looked up) 1: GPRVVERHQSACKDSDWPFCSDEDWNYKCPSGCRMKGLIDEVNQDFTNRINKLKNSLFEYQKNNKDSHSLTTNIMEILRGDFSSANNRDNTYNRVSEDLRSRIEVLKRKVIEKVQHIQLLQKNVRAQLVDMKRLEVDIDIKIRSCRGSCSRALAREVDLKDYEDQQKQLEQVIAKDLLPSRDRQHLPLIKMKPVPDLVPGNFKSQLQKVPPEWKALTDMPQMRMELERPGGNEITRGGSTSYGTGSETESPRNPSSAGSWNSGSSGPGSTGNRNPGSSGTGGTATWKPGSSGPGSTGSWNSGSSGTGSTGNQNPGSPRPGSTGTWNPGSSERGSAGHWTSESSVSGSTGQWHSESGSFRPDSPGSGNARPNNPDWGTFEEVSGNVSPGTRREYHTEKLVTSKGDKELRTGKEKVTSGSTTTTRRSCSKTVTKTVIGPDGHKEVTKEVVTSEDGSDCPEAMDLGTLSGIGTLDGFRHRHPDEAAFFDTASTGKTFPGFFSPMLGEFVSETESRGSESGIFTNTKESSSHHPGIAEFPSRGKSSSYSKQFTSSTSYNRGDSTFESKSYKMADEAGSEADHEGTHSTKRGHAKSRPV
T1 sequence (looked up) 2: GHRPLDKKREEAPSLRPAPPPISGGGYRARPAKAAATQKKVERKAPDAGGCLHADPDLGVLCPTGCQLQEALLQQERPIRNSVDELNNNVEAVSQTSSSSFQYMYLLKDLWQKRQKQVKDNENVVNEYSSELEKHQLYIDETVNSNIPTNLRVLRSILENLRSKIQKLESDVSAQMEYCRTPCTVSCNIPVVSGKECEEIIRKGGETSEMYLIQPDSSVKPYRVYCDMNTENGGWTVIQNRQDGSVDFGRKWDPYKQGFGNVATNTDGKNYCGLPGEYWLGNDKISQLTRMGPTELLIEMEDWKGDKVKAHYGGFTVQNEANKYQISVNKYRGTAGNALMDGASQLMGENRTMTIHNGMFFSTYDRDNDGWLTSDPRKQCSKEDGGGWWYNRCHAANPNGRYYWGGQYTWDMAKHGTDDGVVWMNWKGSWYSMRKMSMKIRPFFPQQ
T1 sequence (looked up) 3: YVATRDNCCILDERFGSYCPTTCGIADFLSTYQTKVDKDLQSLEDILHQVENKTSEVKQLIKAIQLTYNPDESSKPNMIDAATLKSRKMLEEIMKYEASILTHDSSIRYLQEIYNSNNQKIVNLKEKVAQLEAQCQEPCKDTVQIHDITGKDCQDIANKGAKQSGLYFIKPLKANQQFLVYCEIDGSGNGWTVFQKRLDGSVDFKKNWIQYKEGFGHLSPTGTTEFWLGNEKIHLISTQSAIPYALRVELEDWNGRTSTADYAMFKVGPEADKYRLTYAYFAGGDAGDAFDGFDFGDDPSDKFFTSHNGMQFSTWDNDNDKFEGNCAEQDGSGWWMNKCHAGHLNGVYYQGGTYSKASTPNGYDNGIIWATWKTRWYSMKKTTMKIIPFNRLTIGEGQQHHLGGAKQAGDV
The experiment is described as follows: SPR, sdFv flowed over immobilised fibrin layer, 1:1 Langmuir fit. The protocol: Based on previous SPR protocols developed in the lab⁴, a thin fibrin layer was immobilized on the surface of a gold SPR chip via layer-by-layer deposition of fibrinogen-thrombin-fibrinogen³. SdFvs were flowed across the fibrin surface and the binding interactions were evaluated and recorded. Additionally, antibody fragment binding interactions with a surface of immobilized fibrinogen was used to investigate the specificity to fibrin. All SPR data was examined and analyzed with Scrubber 2 and Clamp XP (Center for Biomolecular Interactions Analysis, University of Utah). Data simulation curves were generated based on a Langmuir 1:1 binding model assuming only a single ligand-analyte interaction.
The four most promising clones, based on their selectivity for fibrin over fibrinogen (clones A2, A6, B3 and H6) and a random clone (S11) were then evaluated through SPR analysis (FIGS. 2B-2K). […] Clones H6 and S11 (negative control) were subsequently utilized for creation of PLPs. Interferometry analysis verified that sdFv-microgels maintained their fibrin-binding capabilities (FIG. 3).
Background: SPR reads the build-up and loss of mass on a sensor chip optically.

B1: H6 (VHH)
VHH: QVQLLESGGGLVQPGGSLRLSCAASGDRFTHNDMGWVRQAPGKGLEWVSTIPTTDGSTYYADSVKGRFTISRDNSKSTLYLQMNSLRAEDTAVYYCATGYMWKAPAYVKYWGQGTLVTVSS
notes: Human-derived single domain variable fragment (sdFv, VH only) from a phagemid library; Made as soluble sdFv in E. coli HB2151 and purified on protein A; also called clone H6; fibrin-specific sdFv
One may read the Kd as a measure of binding affinity in units of concentration. Higher therefore signals a looser complex. Molecule B1 yielded an equilibrium dissociation constant (Kd) of 199 nM.

The values are drawn from patent publication US20190224333A1 (published 2019).
